Target: the molecule itself
Assay: crystal structure

B1: miTRPV2QM (minimal rabbit TRPV2 construct with the four point mutations F470S, L505M, L508T and Q528E) (domain or fragment)
chain: LNYRKGAGASQPDLNRFDRDRLFNVVARGNPEDLAGLLEYLRRTSKYLTDSEYTEGSTGKTCLMKAVLNLQDGVNACIQPLLEIDRDSGNPQPLVNAQCTDEYYRGHSALHIAIEKRSLQCVKLLVENGANVHAKACGHFFQKNQDTCFYFGELPLSLAACTKQWDVVNYLLENPHQPASLQAQDSLGNTVLHALVMIADDSAENSALVVRMYDGLLQAGARLCPNVQLEGIPNLEGLTPLKLAAKEGKIEIFKHILQREFSAPCQSLSRKFTEWCYGPVRVSLYDLASVDSWEENSVLEIIAFHSRSPHRHRMVVLEPLNKLLQAKWDRLIPRFCFNFLCYLVYMLIFTAVAYHQPALEKQGFPPLKATAGNSMLLLGHILILLGGVYLLLGQLWYFWRRRLFIWISFMDSYSEILFLLQALLTVLSQVLCFLAIEWYLPLLVSSLVMGWTNLLYYTRGFQHTGIYSVMIEKVILRDLLRFLLVYLVFLFGFAVALVSLSREAQDEAPPYRSILDASLELFKFTIGMGELAFQEQLRFRGVVLLLLLAYVLLTYVLLLNMLIALMSETVNSVATDSWSIWKLQKAISVLEMENGYWWCRRKKQRAGVMLTVGTRPDGSPDERWCFRVGEMNWATWEQTLPRTLC
  stoichiometry N: 4
